Reference: patent US20260125472A1 (HEFEI TG IMMUNOPHARMA, published 2026)

B1: Cross309×PDL1 (bispecific antibody, human IgG1, kappa, L234A L235A)
scFv: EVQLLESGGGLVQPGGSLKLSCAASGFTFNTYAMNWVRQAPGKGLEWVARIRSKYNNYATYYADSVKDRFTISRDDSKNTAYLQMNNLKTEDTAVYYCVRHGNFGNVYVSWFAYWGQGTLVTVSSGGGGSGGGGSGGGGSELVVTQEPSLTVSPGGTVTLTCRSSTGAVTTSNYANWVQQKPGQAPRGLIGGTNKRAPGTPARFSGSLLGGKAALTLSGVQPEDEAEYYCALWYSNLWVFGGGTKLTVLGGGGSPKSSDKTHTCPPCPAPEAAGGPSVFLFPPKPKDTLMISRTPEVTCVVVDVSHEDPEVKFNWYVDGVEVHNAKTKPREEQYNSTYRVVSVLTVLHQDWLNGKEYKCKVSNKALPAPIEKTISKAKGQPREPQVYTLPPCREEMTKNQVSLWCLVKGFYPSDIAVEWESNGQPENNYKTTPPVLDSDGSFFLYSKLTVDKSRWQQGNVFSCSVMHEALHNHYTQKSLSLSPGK
heavy: QVQLVQSGAEVKKPGASVKVSCKASGYSFTGYYMHWVRQAPGQGLEWIGRINPYNGATTYSQNFKDRATMTVDTSISTAYMELSRLRSDDTAVYYCVPTGMGYFLMDYWGQGTLVTVSSASTKGPSVFPLAPSSKSTSGGTAALGCLVKDYFPEPVTVSWNSGALTSGVHTFPAVLQSSGLYSLSSVVTVPSSSLGTQTYICNVNHKPSNTKVDKKVEPKSCDKTHTCPPCPAPEAAGGPSVFLFPPKPKDTLMISRTPEVTCVVVDVSHEDPEVKFNWYVDGVEVHNAKTKPREEQYNSTYRVVSVLTVLHQDWLNGKEYKCKVSNKALPAPIEKTISKAKGQPREPQVCTLPPSREEMTKNQVSLSCAVKGFYPSDIAVEWESNGQPENNYKTTPPVLDSDGSFFLVSKLTVDKSRWQQGNVFSCSVMHEALHNHYTQKSLSLSPGK
light: DIQLTQSPSFLSASVGDRVTITCKASQDVGSAVVWYQQKPGKAPKLLIYWASTRHTGVPSRFSGSGSGTEFTLTISSLQPEDFATYFCQQFTSYPTFGQGTKLEIKRTVAAPSVFIFPPSDEQLKSGTASVVCLLNNFYPREAKVQWKVDNALQSGNSQESVTEQDSKDSTYSLSSTLTLSKADYEKHKVYACEVTHQGLSSPVTKSFNRGEC
B2: Cross325×PDL1 (bispecific antibody, human IgG1, kappa, L234A L235A)
scFv: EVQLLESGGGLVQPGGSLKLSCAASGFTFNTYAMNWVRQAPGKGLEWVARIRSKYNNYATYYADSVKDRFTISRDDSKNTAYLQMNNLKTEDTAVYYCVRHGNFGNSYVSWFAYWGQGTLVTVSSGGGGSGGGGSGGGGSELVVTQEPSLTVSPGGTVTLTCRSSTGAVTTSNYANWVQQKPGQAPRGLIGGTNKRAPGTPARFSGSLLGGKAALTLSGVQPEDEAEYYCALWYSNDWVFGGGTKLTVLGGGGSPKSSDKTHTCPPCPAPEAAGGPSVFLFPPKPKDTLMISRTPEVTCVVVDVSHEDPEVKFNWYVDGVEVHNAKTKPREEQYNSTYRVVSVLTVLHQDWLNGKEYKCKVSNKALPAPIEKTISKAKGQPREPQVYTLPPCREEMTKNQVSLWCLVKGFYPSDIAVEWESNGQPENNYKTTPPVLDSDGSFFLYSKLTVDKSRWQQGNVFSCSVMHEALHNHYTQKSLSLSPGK
heavy: B1 heavy
light: B1 light
B3: Cross323×PDL1 (bispecific antibody, human IgG1, kappa, L234A L235A)
scFv: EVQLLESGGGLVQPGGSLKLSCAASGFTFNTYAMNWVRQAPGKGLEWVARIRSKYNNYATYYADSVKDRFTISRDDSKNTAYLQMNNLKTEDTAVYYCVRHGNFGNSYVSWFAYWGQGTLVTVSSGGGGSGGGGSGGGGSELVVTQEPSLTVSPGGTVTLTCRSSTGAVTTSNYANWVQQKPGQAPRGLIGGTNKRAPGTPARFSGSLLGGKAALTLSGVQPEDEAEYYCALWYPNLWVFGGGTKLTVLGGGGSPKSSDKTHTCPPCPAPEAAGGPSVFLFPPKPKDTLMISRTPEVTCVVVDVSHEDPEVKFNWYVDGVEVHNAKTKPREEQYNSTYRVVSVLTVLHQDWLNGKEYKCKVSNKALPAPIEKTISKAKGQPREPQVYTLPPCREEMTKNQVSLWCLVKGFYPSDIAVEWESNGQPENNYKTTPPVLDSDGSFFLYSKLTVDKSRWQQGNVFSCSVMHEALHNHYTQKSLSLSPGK
heavy: B1 heavy
light: B1 light
B4: Cross318×PDL1 (bispecific antibody, human IgG1, kappa, L234A L235A)
scFv: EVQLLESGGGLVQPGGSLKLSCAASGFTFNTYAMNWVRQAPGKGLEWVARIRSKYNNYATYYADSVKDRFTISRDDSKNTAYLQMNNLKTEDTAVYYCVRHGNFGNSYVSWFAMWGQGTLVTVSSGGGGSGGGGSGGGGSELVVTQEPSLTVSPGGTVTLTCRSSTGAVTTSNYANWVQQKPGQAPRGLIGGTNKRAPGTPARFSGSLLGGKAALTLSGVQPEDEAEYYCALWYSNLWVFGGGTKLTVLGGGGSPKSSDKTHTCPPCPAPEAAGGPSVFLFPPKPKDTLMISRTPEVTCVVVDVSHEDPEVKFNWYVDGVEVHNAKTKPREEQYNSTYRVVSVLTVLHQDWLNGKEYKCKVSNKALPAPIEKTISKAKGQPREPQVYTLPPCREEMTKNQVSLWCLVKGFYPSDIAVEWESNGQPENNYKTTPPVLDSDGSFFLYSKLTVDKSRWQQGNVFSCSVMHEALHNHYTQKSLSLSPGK
heavy: B1 heavy
light: B1 light

Key:
[1] = biological target: T1, PDL1 on A-375 melanoma cells, HCT-15 colorectal cancer cells and A549 lung cancer cells (UniProt Q9NZQ7 19-290, limits assumed); test: flow cytometry, A-375 cells, binding ratio % [panel A]
T1 construct: whole, on cells
T1 sequence (Q9NZQ7 19-290 limits assumed): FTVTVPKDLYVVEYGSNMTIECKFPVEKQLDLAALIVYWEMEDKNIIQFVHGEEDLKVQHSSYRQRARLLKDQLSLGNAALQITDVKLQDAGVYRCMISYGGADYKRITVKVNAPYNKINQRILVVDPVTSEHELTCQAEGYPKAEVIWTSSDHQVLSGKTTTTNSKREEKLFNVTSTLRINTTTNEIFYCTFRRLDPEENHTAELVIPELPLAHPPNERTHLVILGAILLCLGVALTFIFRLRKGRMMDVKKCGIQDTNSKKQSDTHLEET
Experimental: (§1) (2) The tumor cells were diluted to 2×10⁶/ml with PBS and added to a 1.5 ml EP tube at a volume of 100 μl/tube, and goat serum was added thereto at 10 μl/tube. The cells were blocked at 4° C. for 30 min. The serially diluted bispecific antibodies, Cross3×Trop2, Cross303×Trop2, Cross307×Trop2, Cross308×Trop2, Cross309×Trop2, Cross310×Trop2, Cross311×Trop2, Cross312×Trop2, Cross313×Trop2, Cross314×Trop2, Cross316×Trop2, Cross317×Trop2, Cross318×Trop2, Cross323×Trop2, Cross325×Trop2, Cross326×Trop2, and Cross3×PDL1, Cross303×PDL1, Cross307×PDL1, Cross308×PDL1, Cross309×PDL1, Cross310×PDL1, Cross311×PDL1, Cross312×PDL1, Cross313×PDL1, Cross314×PDL1, Cross316×PDL1, Cross317×PDL1, Cross318×PDL1, Cross323×PDL1, Cross325×PDL1, Cross326×PDL1, and control hIgG1LALA (purchased from Bio-Tech) were added and incubated at 4° C. for 30 min. 1 ml of PBS was added to the EP tube, followed by centrifugation at 3500 rpm for 5 min at 4° C. The supernatant was discarded, and the cells were washed again with PBS. After centrifugation, the supernatant was completely discarded, and the cells were resuspended with PBS at 100 μl/tube. Alexa-647-labeled goat anti-human IgG secondary antibody (purchased from Jackson lab) was added at 1 μl/tube and incubated at 4° C. in the dark for 30 min. The cells were washed twice with PBS, and the supernatant was completely discarded after centrifugation. The cells were resuspended with PBS at 200 μl/tube and assay was performed using the flow cytometry.

PDL1 protein [2] = biological target: T2, PDL1 protein (UniProt Q9NZQ7 19-238); test: ELISA, coated PDL1 protein, OD450 [panel A]
T2 construct: Bought recombinant protein
T2 sequence (Q9NZQ7 19-238 limits assumed): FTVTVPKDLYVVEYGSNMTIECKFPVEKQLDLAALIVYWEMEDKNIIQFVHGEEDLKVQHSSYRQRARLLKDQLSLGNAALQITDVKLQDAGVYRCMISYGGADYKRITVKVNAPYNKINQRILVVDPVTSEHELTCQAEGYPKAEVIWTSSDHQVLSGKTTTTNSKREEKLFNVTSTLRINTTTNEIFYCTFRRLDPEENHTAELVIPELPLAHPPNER
Experimental: (§2) (3) PDL1 protein (purchased from Acro) was diluted to 2 μg/ml with PBS buffer, added to a 96-well plate at a volume of 100 μL/well, and placed at 4° C. overnight. The PBS buffer in the 96-well plate was aspirated, and the plate was washed 6 times with PBST (pH 7.2 PBS containing 0.10% Tween 20) buffer. Then, PBS/10% BSA was added at 200 μL/well and incubated at 37° C. for 2 h for blocking. The blocking solution was removed, and the plate was washed six times with PBST. Then, the to-be-tested bispecific antibodies serially diluted with PBST/0.05% BSA, Cross3×PDL1, Cross303×PDL1, Cross307×PDL1, Cross308×PDL1, Cross309×PDL1, Cross310×PDL1, Cross311×PDL1, Cross312×PDL1, Cross313×PDL1, Cross314×PDL1, Cross316×PDL1, Cross317×PDL1, Cross318×PDL1, Cross323×PDL1, Cross325×PDL1, Cross326×PDL1, and control IgG1LALA (purchased from Bio-Tech) were added at 100 μL/well, and incubated at 37° C. for 1 h. The reaction system was removed, and the plate was washed 6 times with PBST. Then, the cells were incubated at 37° C. for 1 h with HRP (horseradish peroxidase)-labeled anti-human secondary antibody (Fab specific) (purchased from Sigma) serially diluted with PBST/0.05% BSA at 100 μL/well. After the plate was washed six times with PBST, TMB (tetramethylbenzidine) was added at 80 μL/well and incubated at room temperature for 3 min. 4 M sulfuric acid was added at 80 μL/well to terminate the reaction. The absorbance was read at 450 nm using a microplate reader.

[3] = biological target: T1, PDL1 on A-375 melanoma cells, HCT-15 …; test: flow cytometry, A549 cells, MFI [panel B]
Experimental: as §1

CD3E&D protein = biological target: T3, CD3E&D protein (UniProt P04234 22-105); test: ELISA, coated CD3E&D protein, OD450 [panel B]
T3 construct: Purchased from Acro; also called CD3 E&D antigens; CD3E&D antigen protein
T3 sequence (chain, as listed by the source limits assumed, chain 1 of 2): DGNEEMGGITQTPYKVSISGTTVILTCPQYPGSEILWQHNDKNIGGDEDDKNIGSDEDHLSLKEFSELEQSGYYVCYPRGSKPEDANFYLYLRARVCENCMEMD
T3 sequence (P04234 22-105 limits assumed, chain 2 of 2): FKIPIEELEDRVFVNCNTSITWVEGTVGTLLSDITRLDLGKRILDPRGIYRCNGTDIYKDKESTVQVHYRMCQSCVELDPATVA
From the text: In this example, the binding properties of the CD3×Trop2 and CD3×PDL1 bispecific antibody (the production method and the amino acid sequences of the heavy and light chains were shown in Example 1) were detected by using ELISA. The CD3E&D, Trop2, or PDL1 protein was coated onto 96-well plates by inventors, and the strength of the signal after the addition of the antibody was used to determine the binding properties of the antibody and the corresponding protein.
(1) CD3E&D protein (purchased from Acro) was diluted to 2 μg/ml with PBS buffer, added to a 96-well plate at a volume of 100 μL/well, and placed at 4° C. overnight. The PBS buffer in the 96-well plate was aspirated, and the plate was washed 6 times with PBST (pH 7.2 PBS containing 0.1% Tween 20) buffer. Then, 200 μL/well PBS/10% BSA was added and incubated at 37° C. for 2 h for blocking. The blocking solution was removed, and the plate was washed 6 times with PBST. Then, the to-be-tested bispecific antibodies serially diluted with PBST/0.05% BSA, Cross3×Trop2, Cross303×Trop2, Cross307×Trop2, Cross308×Trop2, Cross309×Trop2, Cross310×Trop2, Cross311×Trop2, Cross312×Trop2, Cross313×Trop2, Cross314×Trop2, Cross316×Trop2, Cross317×Trop2, Cross318×Trop2, Cross323×Trop2, Cross325×Trop2, Cross326×Trop2, Cross3×PDL1, Cross303×PDL1, Cross307×PDL1, Cross308×PDL1, Cross309×PDL1, Cross310×PDL1, Cross311×PDL1, Cross312×PDL1, Cross313×PDL1, Cross314×PDL1, Cross316×PDL1, Cross317×PDL1, Cross318×PDL1, Cross323×PDL1, Cross325×PDL1, Cross326×PDL1, and control IgG1LALA (purchased from Bio-Tech) were added at 100 μL/well, and incubated at 37° C. for 1 h. The reaction system was removed, and the plate was washed 6 times with PBST. Then, the cells were incubated at 37° C. for 1 h with HRP (horseradish peroxidase)-labeled anti-human secondary antibody (Fab specific) (purchased from Sigma) diluted with PBST/0.05% BSA at 100 μL/well. After the plate was washed six times with PBST, 80 μL/well TMB (tetramethylbenzidine) was added and incubated at room temperature for 3 min. […] The absorbance was read at 450 nm using a microplate reader.

CD3 on CD8 T cells = biological target: T4, CD3 on CD8 T cells (Homo sapiens (Human), UniProt P07766 23-207); test: flow cytometry, CD8 T cells in PBMCs, binding ratio % [panel A]
T4 construct: Native CD3 complex on CD8 T cells among PBMCs; also called T cells (PBMCs gated with anti-human CD8 antibody)
T4 sequence (P07766 23-207 limits assumed): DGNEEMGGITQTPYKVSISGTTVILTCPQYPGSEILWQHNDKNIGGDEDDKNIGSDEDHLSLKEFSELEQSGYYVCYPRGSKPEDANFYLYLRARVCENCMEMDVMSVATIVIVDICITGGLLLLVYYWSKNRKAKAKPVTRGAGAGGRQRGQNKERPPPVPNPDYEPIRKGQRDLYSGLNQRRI
Experimental: (1) PBMCs were diluted to 2×10⁶/ml with PBS and added to a 1.5 ml EP tube at 100 μl/tube, goat serum was added thereto at 10 μl/tube. The cells were blocked at 4° C. for 30 min. The serially diluted bispecific antibodies, Cross3×Trop2, Cross303×Trop2, Cross307×Trop2, Cross308×Trop2, Cross309×Trop2, Cross310×Trop2, Cross311×Trop2, Cross312×Trop2, Cross313×Trop2, Cross314×Trop2, Cross316×Trop2, Cross317×Trop2, Cross318×Trop2, Cross323×Trop2, Cross325×Trop2, Cross326×Trop2, Cross3×PDL1, Cross313×PDL1, Cross316×PDL1, Cross325×PDL1, and control hIgG1LALA (purchased from Bio-Tech) were added and incubated at 4° C. for 30 min. 1 ml of PBS was added to the EP tube, followed by centrifugation at 3500 rpm for 5 min at 4° C. The supernatant was discarded, and the system was washed again with PBS. After centrifugation, the supernatant was discarded, and the cells were resuspended with PBS at 100 μl/tube. 1 μl/tube Alexa-647-labeled goat anti-human IgG secondary antibody (purchased from Jackson lab) and 0.5 μl/tube PerCP-Cy5.5-labeled anti-human CD8 antibody were added and incubated at 4° C. in the dark for 30 min. The cells were washed twice with PBS. After centrifugation, the supernatant was discarded. The cells were resuspended with 200 μl/tube of PBS and assay is performed by flow cytometry.

PDL1 protein [4] = biological target: T2, PDL1 protein; test: ELISA, coated PDL1 protein, OD450 [panel B]
Experimental: as §2

Binder	EC50 (read off the curve) [1]	EC50 (read off the curve) (PDL1 protein [2])	EC50 (read off the curve) [3]	EC50 (read off the curve) (CD3E&D protein)	EC50 (read off the curve) (CD3 on CD8 T cells)	EC50 (read off the curve) (PDL1 protein [4])
B1	~0.4 µg/mL	~200 ng/mL	~1 µg/mL			
B2			~1 µg/mL	~700 ng/mL	~0.4 µg/mL	~100 ng/mL
B3				~1000 ng/mL		~200 ng/mL
B4			~1 µg/mL	~1000 ng/mL		~200 ng/mL
